We go through 23 molecules from patent US20200299408A1 (Genentech, published 2020).

The labels stand for the following.
T1: single chain human CD3ε-26mer-CD3γ (CD3εγ) (human)
T1 construct: also called human CD3εγ
T1 chain: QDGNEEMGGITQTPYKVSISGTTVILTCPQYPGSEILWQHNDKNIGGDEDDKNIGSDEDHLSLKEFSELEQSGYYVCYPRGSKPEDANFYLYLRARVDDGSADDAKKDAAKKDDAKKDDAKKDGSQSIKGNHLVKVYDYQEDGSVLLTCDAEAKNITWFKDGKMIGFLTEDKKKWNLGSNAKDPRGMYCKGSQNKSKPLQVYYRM

B1: 38E4 v2 (antibody, V domains shown)
VH: EVQLVQSGAEVKKPGASVKVSCKASGFTFTSYYIHWVRQAPGQGLEWIGWIYPENDNTKYNEKFKDRVTITADTSTSTAYLELSSLRSEDTAVYYCARDAYSRYYFDYWGQGTLVTVSS
VL: DIVMTQSPDSLAVSLGERATINCKSSQSLLNSRTRKNYLAWYQQKPGQSPKLLIYWTSTRKSGVPDRFSGSGSGTDFTLTISSLQAEDVAVYYCKQSFILRTFGQGTKVEIK
B2: 38E4 v7 (antibody, V domains shown)
VH: B1 VH with A100G, Y105A
VL: B1 VL
B3: 38E4 v9 (antibody, V domains shown)
VH: B1 VH with A100G, Y104A
VL: B1 VL
B4: 38E4 v4 (antibody, V domains shown)
VH: B1 VH with A100G
VL: B1 VL with Q96A
B5: 38E4 v5 (antibody, V domains shown)
VH: B1 VH with A100G
VL: B1 VL with F98A
B6: 38E4 v8 (antibody, V domains shown)
VH: B1 VH with D99S, A100G
VL: B1 VL
B7: 38E4 v3 (antibody, V domains shown)
VH: B1 VH with A100G
VL: B1 VL with I99A
B8: 38E4 v6 (antibody, V domains shown)
VH: B1 VH with D99T, A100G
VL: B1 VL
B9: 40G5c Fab (Fab, V domains shown)
VH: B1 VH with F27Y, S31N, E54G, N55D, D56G, D66G, V68A, I70L, A100S, R103N
VL: B1 VL with S49P, T57A, K61E, K95T
B10: 38E4v2 Fab (Fab, V domains shown)
VH: B1 VH
VL: B1 VL
B11: 38E4v4 Fab (Fab, V domains shown)
VH: B1 VH with A100G
VL: B1 VL with Q96A
B12: 38E4v7 Fab (Fab, V domains shown)
VH: B1 VH with A100G, Y105A
VL: B1 VL
B13: 38E4v6 Fab (Fab, V domains shown)
VH: B1 VH with D99T, A100G
VL: B1 VL
B14: 38E4v9 Fab (Fab, V domains shown)
VH: B1 VH with A100G, Y104A
VL: B1 VL
B15: 38E4v5 Fab (Fab, V domains shown)
VH: B1 VH with A100G
VL: B1 VL with F98A
B16: 38E4v3 Fab (Fab, V domains shown)
VH: B1 VH with A100G
VL: B1 VL with I99A
B17: 38E4v8 Fab (Fab, V domains shown)
VH: B1 VH with D99S, A100G
VL: B1 VL
B18: 127B3 (antibody, IgG3, V domains shown)
VH: QVQLQQSGSELVRPGASLKLSCKASGYTFTSYWMHWVRQRPGQGLEWIGNFYPGDLTVNYDEKFKNKVTLAVDTSSSTAFLQLSSLTSEDSAVYYCTRDAYSRYFFDYWGQGTTLTVSS
VL: DIVMTQSPSSLAVSAGEKVTMSCKSSQSLLNSRTRKNYLAWYQQKPGQSPKLLIYWASTRESGVPDRFTGSGSGTDFTLTISSVQTEDLAVYYCCQSFILRTFGGGTKLEIK
notes: mouse hybridoma clone
B19: 39B7 (antibody, IgG2b, V domains shown)
VH: QVQLQQSGPELVKPGTSVKISCKTSGYNFINYYTHWVKQRPGQGLEWIGWIYPGNGNIKYNEKFMGKATLTADTSSTTAHMHLSSLVSEDSAVYYCARDSYGSYYFDYWGQGTTLTVSS
VL: B18 VL with S22T, T86A, C95K
notes: mouse hybridoma clone
B20: 40D2 (antibody, IgG2b, V domains shown)
VH: QVQLQQSGPELVKPGASLKISCKASGYSFANYYTHWVRQRPGQGLEWIGWLYPGNGDTRYNEKFKDKATLTADTSSNTASMQLNSLTSEDSAVYYCTRDSYGNYFFDYWGQGTTLIVSS
VL: B18 VL with Y55F, T86A, C95K, I111L
notes: mouse hybridoma clone
B21: 95A2 (antibody, IgG3, V domains shown)
VH: QVQLQQSGPEMVKPGASVTISCKTSGFTFTSYYIHWMMQRPGQGLEWIGWLYPGDVSTRYNEKFRDKATLTADKSSTTAYLYLSSLTSEDSAVYFCARDSSASYYFDFWGQGTTLTVSS
VL: B18 VL with K18M, M21L, S22H, S32I, Q43L, K51R, E61A, T86P, C95T, I111L
notes: mouse hybridoma clone
B22: 118G9 (antibody, IgG3, V domains shown)
VH: QVQLQQPGSELVRPGASVTLSCTASGYSFTSYWMHWVKQRPGQGLEWVGNIYPGGEIINYAEKFKTKGTLTVDISSSTAYMHLSSLTSDDSAVYYCTRDTTGNYFFDYWGQGTTLTVSS
VL: B18 VL with Q48L, D66E, C95T, K108R
notes: mouse hybridoma clone
B23: 79B7 (antibody, IgG3, V domains shown)
VH: B18 VH with F51S, T57N
VL: B18 VL
notes: mouse hybridoma clone

Numbering of substitutions follows the chain as printed.

One experiment deals with T1, single chain human CD3ε-26mer-CD3γ …. As to the kind of experiment: Biacore, human CD3εγ on chip, antibody in flow-through. (In general: In SPR one partner is held on a chip, and binding of the other changes the refractive index at the surface.)
Turning to B1, binding was put at a Kd of 1.6 nM, the koff came out at 0.0036 s⁻¹ and the kon is 2.29e+06 M⁻¹ s⁻¹.

As to B2, the affinity, expressed as Kd, was 87 nM; the koff came to 0.0246 s⁻¹; the kon was 283000 M⁻¹ s⁻¹.

For B3, the affinity, expressed as Kd, was 229 nM; the koff was found to be 0.0166 s⁻¹; the kon amounted to 72600 M⁻¹ s⁻¹.

In turn, B4 displayed a Kd of 10 nM, a koff of 0.0034 s⁻¹ and a kon of 325000 M⁻¹ s⁻¹.

As to B5, the Kd is 11 nM, the koff amounted to 0.0225 s⁻¹ and the kon was found to be 2.05e+06 M⁻¹ s⁻¹.

As for B6, the affinity, expressed as Kd, was 180 nM; the koff turned out to be 0.202 s⁻¹; the kon was determined as 1.12e+06 M⁻¹ s⁻¹.

In turn, B7 came in with a Kd of 3.4 nM, a koff of 0.014 s⁻¹ and a kon of 4.11e+06 M⁻¹ s⁻¹.

The molecule B8 had a Kd of 34 nM, a koff of 0.0017 s⁻¹ and a kon of 51100 M⁻¹ s⁻¹.

For a further experiment the target is unchanged. As to the kind of experiment: Biacore, human CD3εγ on chip, Fab in flow through. The procedure:
Binding affinities for the each of the CD3/CD20 TDBs were tested by Biacore or FACS analysis, as described above for the anti-CD3 antibodies. Briefly, for Biacore binding assays, human CD3εγ was immobilized on Biacore Series S CM5 sensor chip using the amine coupling kit from Biacore and CD3/CD20 TDBs or Fab variants thereof were in the flow through. For FACS binding assays, either Bjab cells (for B cell antigens) or Jurkat cells (for CD3 antigen) were incubated with various concentrations of TDB antibodies at 4° C. for 30 minutes, then cells were washed and incubated with 2nd antibody (anti-huIgG-PE; BD Bioscience) for another 15 minutes, before cells were washed again and ready for FACS analysis.
B9 registered a Kd of 63.2 nM, a koff of 0.0253 s⁻¹ and a kon of 401000 M⁻¹ s⁻¹.

Regarding B10, the Kd is 1.6 nM, the koff is 0.00359 s⁻¹ and the kon turned out to be 2.29e+06 M⁻¹ s⁻¹.

The molecule B11 showed a Kd of 10.3 nM, a koff of 0.00336 s⁻¹ and a kon of 325000 M⁻¹ s⁻¹.

B12 showed a Kd of 87 nM, a koff of 0.0246 s⁻¹ and a kon of 283000 M⁻¹ s⁻¹.

The molecule B13 registered a Kd of 34.2 nM, an off-rate (koff) of 0.00175 s⁻¹ and a kon of 51100 M⁻¹ s⁻¹.

The molecule B14 returned a Kd of 229 nM, a koff of 0.0166 s⁻¹ and a kon of 72600 M⁻¹ s⁻¹.

B15 returned a Kd of 11 nM, a koff of 0.0225 s⁻¹ and a kon of 2.05e+06 M⁻¹ s⁻¹.

For the molecule B16, the Kd came out at 3.4 nM, the koff was 0.014 s⁻¹ and the kon was 4.11e+06 M⁻¹ s⁻¹.

Consider B17, for which the affinity, expressed as Kd, was 180 nM; the koff came out at 0.202 s⁻¹; the kon amounted to 1.12e+06 M⁻¹ s⁻¹.

A further experiment addresses CD3 antigen of Figures 3B and 3C (not named). As to the kind of experiment: kinetic table of IgGs; method and antigen not stated.
On to B18, for which the Kd came to 0.744 nM, the koff worked out at 9.67e-05 s⁻¹ and the kon came to 130000 M⁻¹ s⁻¹.

B19 had a Kd of 0.331 nM, a koff of 7.31e-05 s⁻¹ and a kon of 220000 M⁻¹ s⁻¹.

B20 showed a Kd of 0.563 nM, a koff of 0.000111 s⁻¹ and a kon of 197000 M⁻¹ s⁻¹.

As for B21, the affinity, expressed as Kd, was 0.0644 nM; the koff is 1.87e-05 s⁻¹; the kon was 290000 M⁻¹ s⁻¹.

As to B22, the Kd came out at 0.209 nM, the koff was determined as 3.74e-05 s⁻¹ and the association rate constant (kon) came out at 179000 M⁻¹ s⁻¹.

In turn, B23 yielded a Kd of 0.224 nM, a koff of 3.41e-05 s⁻¹ and a kon of 152000 M⁻¹ s⁻¹.

What is called Kd is the equilibrium constant for the complex coming apart. Low values mean tighter binding, high ones weaker binding. In general, koff refers to the first-order rate constant of dissociation. High values mean a short-lived complex, low ones a long-lived complex. For orientation: kon means the second-order rate constant of association. A lower kon goes with slower complex formation.
